Measured values: patent publication US11111484B2, “Streptococcus bacteriophage lysins for detection and treatment of gram positive bacteria” (priority 2011, dated 2021)

Assays:
MRSA MW2 = experiment: CFU studies, bactericidal effect; format: cell-based, Staphylococcus aureus; settings: 128 μg/ml PlySs2, 1 hour
Procedure: Log-phase bacteria were resuspended in buffer A to an OD600 of 0.1 (=0.5 McFarland≈10^8 CFU/ml). PlySs2 was added at 128 μg/ml to polypropylene microtiter plates (Costar) in triplicate for each test organism. Plates were sealed and incubated at 37° C. with shaking every 5 minutes for 1 hour. After 1 hour of incubation, cells were serially diluted in 10-fold increments and plated on BHI. Triplicate controls for each strain were performed with buffer B replacing PlySs2.

[1] = PlySs2 solubility / concentrated solution; format: physicochemical; settings: ≈20 mg/ml solution
Procedure: The aforementioned preparation led to a highly pure lysin preparation in just two chromatographic steps (FIG. 6). With a predicted pi of 9.01, PlySs2 flowed directly through the DEAE column at pH=7.4 leaving the bulk of the contaminant proteins stuck to the DEAE column. PlySs2 eluted cleanly in the shoulder of the flow through and at 17 mM NaCl, being purified from proteins that rapidly flowed through the CM resin. This preparation yielded ≈60 mg of protein per liter of E. coli culture at ≈1.5 mg/ml with >99% purity. The yield increased to ≈150 mg per liter of E. coli culture at ≈2.0 mg/ml with >90% purity when the CM column step was forwent. If necessary, the latter product was: dialyzed (into 5 mM PB, 15 mM NaCl); lyophilized; reconstituted (at 10% of the original volume); centrifuged; and filter-sterilized (to remove any insoluble material). […] PlySs2 can be produced more efficiently, and at a higher concentration, than many published lysins (Daniel A et al (2010) Antimicrob Agents Chemother 54(4):1602-1612; Wang, Y. et al (2009) Curr Microbiol 58(6):609-615; Nelson, D et al (2006) Proc Natl Acad Sci USA 103(28):10765-10770).
PlySs2 is more tractable and stable than previously developed lysins. PlySs2 preparation is straightforward, yielding large quantities in few steps. In addition, a highly soluble lysin is essential, because it allows for ready use at high concentrations. […]

MRSA = MRSA wound infection model in rats; settings: dorsal wound; 500 μL + 100 μL PlySs2 at 10 mg/mL; after 10 days
L. monocytogenes HER1084 = experiment: ΔPlySs1 OD600 lysis, 1 hr, optimal buffering conditions; format: cell-based, Listeria monocytogenes
S. dysgalactiae GGS = experiment: as above; format: cell-based, Streptococcus dysgalactiae
S. sanguinis 10556 = experiment: as above; format: cell-based, Streptococcus sanguinis
S. suis 8076 (ST9) = experiment: as above; format: cell-based, Streptococcus suis
Procedure: (§1) Truncated PlySs1(ΔPlySs1) lysin activity was determined against different cell types. Given the above experiments, the following optimal buffering conditions were employed for all further in vitro experiments with ΔPlySs1: 20 mM phosphate buffer, pH=7.8, 2 mM EDTA. A range of lysin concentrations, from 6.5-130 μg/ml, were introduced to live S. suis cells in this buffer. Three strains were considered particularly relevant: 7711, the serotype 7 strain that encodes PlySs1; S735, the serotype 2 reference strain; and 7997, a highly virulent serotype 9 strain. In terms of bacterial viability, only the highest PlySs1-concentration (130 μg/ml) led to a >90% decrease in CFUs for 7711, S735, and 7997 after 1 hr treatment (TABLE 2). The lysin was also tested against actively-dividing cells in broth culture (strain 7711) (FIG. 20).
(§2) ΔPlySs1 was further tested against a panel of 19 other S. suis strains of diverse serotypes, as well as other species of Gram-positive bacteria. The same lysin concentrations were used as above. For each dosage, the observed lysis values after 1 hr are listed in TABLE 3 and TABLE 4, and the information is summarized graphically in FIG. 21.

S. suis ST1 = experiment: as above; format: cell-based, Streptococcus suis
Procedure: as §1, §2

S. suis ST4 = experiment: as above; format: cell-based, Streptococcus suis
Procedure: as §1, §2

S. epidermidis HN1292 = experiment: as above; format: cell-based, Staphylococcus epidermidis
S. salivarius 9222 = experiment: as above; format: cell-based
S. aureus RN4220 = experiment: as above; format: cell-based, Staphylococcus aureus
B. subtilis SL4 = experiment: as above; format: cell-based, Bacillus subtilis

B1: PlySs2: Streptococcus suis prophage lysin, SEQ ID NO:3; N-terminal CHAP domain and C-terminal SH3-type 5 domain (protein, listed as Streptococcus suis)
chain: MTTVNEALNNVRAQVGSGVSVGNGECYALASWYERMISPDATVGLGAGVGWVSGAIGDTISAKNIGSSYNWQANGWTVSTSGPFKAGQIVTLGATPGNPYGHVVIVEAVDGDRLTILEQNYGGKRYPVRNYYSAASYRQQVVHYITPPGTVAQSAPNLAGSRSYRETGTMTVTVDALNVRRAPNTSGEIVAVYKRGESFDYDTVIIDVNGYVWVSYIGGSGKRNYVATGATKDGKRFGNAWGTFK
reduction of colony forming units (CFUs) (MRSA MW2): 5 logs | activity after lyophilization and reconstitution to concentrated solution [1]: retained the concentration-adjusted activity | drop of CFU's of MRSA compared with control rats (MRSA): 3-4 logs

B2: ΔPlySs1: truncated PlySs1 lysin, SEQ ID NO:2, N-terminal 254 amino acids: only N-terminal enzymatic and central binding domains (protein, listed as Streptococcus suis)
chain: MTINLETSIRWMSDRVGKVSYSMDYRNGPNSYDCSSAVYYALMAGGAISAGWAVNTEYMHDWLIRNGYVLVAENKPFNAQRHDVCILGKRGYSSGAGGHVVIFVDNVNVIHCNYARNGISIDNYNQVHRGMYYYLYRPANQPSISNKSLDQLVKETLAGVHGNGDTRKASLGSQYEAVMAVINGKASASEKSDEELAREVLAGKHGAGEDRKRSLGPRYEPVQAKVNELLKAKEKPSETAKNEPQTVQFKEDGDL
lysis value after 1 hr (treated/untreated OD600 ratio) (L. monocytogenes HER1084; 6.5 μg/ml): 0.63 | lysis value after 1 hr (treated/untreated OD600 ratio) (L. monocytogenes HER1084; 13 μg/ml): 0.52 | lysis value after 1 hr (treated/untreated OD600 ratio) (L. monocytogenes HER1084; 30 μg/ml): 0.26 | lysis value after 1 hr (treated/untreated OD600 ratio) (L. monocytogenes HER1084; 65 μg/ml): 0.14 | lysis value after 1 hr (treated/untreated OD600 ratio) (L. monocytogenes HER1084; 130 μg/ml): 0.04 | lysis value after 1 hr (treated/untreated OD600 ratio) (S. dysgalactiae GGS; 6.5 μg/ml): 0.30 | lysis value after 1 hr (treated/untreated OD600 ratio) (S. dysgalactiae GGS; 13 μg/ml): 0.27 | lysis value after 1 hr (treated/untreated OD600 ratio) (S. dysgalactiae GGS; 30 μg/ml): 0.15 | lysis value after 1 hr (treated/untreated OD600 ratio) (S. dysgalactiae GGS; 65 μg/ml): 0.11 | lysis value after 1 hr (treated/untreated OD600 ratio) (S. dysgalactiae GGS; 130 μg/ml): 0.14 | lysis value after 1 hr (treated/untreated OD600 ratio) (S. sanguinis 10556; 6.5 μg/ml): 0.48 | lysis value after 1 hr (treated/untreated OD600 ratio) (S. sanguinis 10556; 13 μg/ml): 0.44 | lysis value after 1 hr (treated/untreated OD600 ratio) (S. sanguinis 10556; 30 μg/ml): 0.28 | lysis value after 1 hr (treated/untreated OD600 ratio) (S. sanguinis 10556; 65 μg/ml): 0.21 | lysis value after 1 hr (treated/untreated OD600 ratio) (S. sanguinis 10556; 130 μg/ml): 0.11 | 1-hour treated/untreated OD600-ratio (S. suis 8076 (ST9); 6.5 μg/ml): 0.52 | 1-hour treated/untreated OD600-ratio (S. suis 8076 (ST9); 13 μg/ml): 0.40 | 1-hour treated/untreated OD600-ratio (S. suis 8076 (ST9); 30 μg/ml): 0.21 | 1-hour treated/untreated OD600-ratio (S. suis 8076 (ST9); 65 μg/ml): 0.14 | 1-hour treated/untreated OD600-ratio (S. suis 8076 (ST9); 130 μg/ml): 0.04 | 1-hour treated/untreated OD600-ratio (S. suis ST1; 6.5 μg/ml): 0.80 | 1-hour treated/untreated OD600-ratio (S. suis ST1; 13 μg/ml): 0.34 | 1-hour treated/untreated OD600-ratio (S. suis ST1; 30 μg/ml): 0.36 | 1-hour treated/untreated OD600-ratio (S. suis ST1; 65 μg/ml): 0.19 | 1-hour treated/untreated OD600-ratio (S. suis ST1; 130 μg/ml): 0.06 | 1-hour treated/untreated OD600-ratio (S. suis ST4; 6.5 μg/ml): 0.63 | 1-hour treated/untreated OD600-ratio (S. suis ST4; 13 μg/ml): 0.47 | 1-hour treated/untreated OD600-ratio (S. suis ST4; 30 μg/ml): 0.32 | 1-hour treated/untreated OD600-ratio (S. suis ST4; 65 μg/ml): 0.22 | 1-hour treated/untreated OD600-ratio (S. suis ST4; 130 μg/ml): 0.12 | lysis value after 1 hr (treated/untreated OD600 ratio) (S. epidermidis HN1292; 6.5 μg/ml): 1.04 | lysis value after 1 hr (treated/untreated OD600 ratio) (S. epidermidis HN1292; 13 μg/ml): 1.00 | lysis value after 1 hr (treated/untreated OD600 ratio) (S. epidermidis HN1292; 30 μg/ml): 0.96 | lysis value after 1 hr (treated/untreated OD600 ratio) (S. epidermidis HN1292; 65 μg/ml): 0.94 | lysis value after 1 hr (treated/untreated OD600 ratio) (S. epidermidis HN1292; 130 μg/ml): 0.87 | lysis value after 1 hr (treated/untreated OD600 ratio) (S. salivarius 9222; 6.5 μg/ml): 0.80 | lysis value after 1 hr (treated/untreated OD600 ratio) (S. salivarius 9222; 13 μg/ml): 0.76 | lysis value after 1 hr (treated/untreated OD600 ratio) (S. salivarius 9222; 30 μg/ml): 0.56 | lysis value after 1 hr (treated/untreated OD600 ratio) (S. salivarius 9222; 65 μg/ml): 0.53 | lysis value after 1 hr (treated/untreated OD600 ratio) (S. salivarius 9222; 130 μg/ml): 0.37 | lysis value after 1 hr (treated/untreated OD600 ratio) (S. aureus RN4220; 6.5 μg/ml): 0.89 | lysis value after 1 hr (treated/untreated OD600 ratio) (S. aureus RN4220; 13 μg/ml): 0.78 | lysis value after 1 hr (treated/untreated OD600 ratio) (S. aureus RN4220; 30 μg/ml): 0.55 | lysis value after 1 hr (treated/untreated OD600 ratio) (S. aureus RN4220; 65 μg/ml): 0.31 | lysis value after 1 hr (treated/untreated OD600 ratio) (S. aureus RN4220; 130 μg/ml): 0.10 | lysis value after 1 hr (treated/untreated OD600 ratio) (B. subtilis SL4; 6.5 μg/ml): 1.07 | lysis value after 1 hr (treated/untreated OD600 ratio) (B. subtilis SL4; 13 μg/ml): 1.05 | lysis value after 1 hr (treated/untreated OD600 ratio) (B. subtilis SL4; 30 μg/ml): 1.04 | lysis value after 1 hr (treated/untreated OD600 ratio) (B. subtilis SL4; 65 μg/ml): 1.03 | lysis value after 1 hr (treated/untreated OD600 ratio) (B. subtilis SL4; 130 μg/ml): 0.96
